Test results reported in patent US11759508B2, “Antigenic peptides for treatment of B-cell malignancy” (ENTEROME S.A., priority 2019, dated 2023).

Legend:
[1] = system: HLA-A2 HHD-DR1 humanized mice; assay: ELISPOT-IFNγ on splenocytes of vaccinated HLA-A2 HHD-DR1 transgenic mice; type: in vivo, mouse; conditions: prime d0 and boost d14, splenocytes d21, listed as CD22-B2
HLA-A*0201 = target: T1, HLA-A*0201 (Homo sapiens, UniProt P04439, D140Y/D185E/D98H/E176V/E277Q/G131W/G231S/I119V/I121R/I166T/I218V/L300P/L318F/N151K/N90K/P208A/P217A/Q86G/Q94H/R138H/R169H/T345S); assay: Affinity of the peptide to T2 cell line (HLA-A*0201 expression, FACS, relative to HIV pol 589-597); type: binding; conditions: for mean relative fluorescence intensity of T2 cells: normalized to HIV peptide = 100
T1 construct: human tumoral cell T2 which expresses the HLA-A*0201 molecule; endogenous in cells; host or cells: T2 cells (human, TAP1/2 negative)
Description: The experimental protocol is similar to the one that was validated for peptides presented by the HLA-A*0201 (Tourdot et al., A general strategy to enhance immunogenicity of low-affinity HLA-A2.1-associated peptides: implication in the identification of cryptic tumor epitopes. Eur J Immunol. 2000 December; 30(12):3411-21). Affinity measurement of the peptides is achieved with the human tumoral cell T2 which expresses the HLA-A*0201 molecule, but which is TAP ½ negative and incapable of presenting endogenous peptides.
T2 cells (5.104 cells per well) are incubated with decreasing concentrations of peptides from 100 μM to 0.1 μM (4 points: 100 μM, 10 μM, 1 μM, 0.1 μM) in serum-free medium (TexMacs) supplemented with […] of β2 Microglobulin at 37° C. for 16 hours. Cells are then washed two times and marked with the anti-HLA-A2 antibody coupled to PE (clone BB7.2, BD Pharmagen).
The analysis is achieved by FACS (Macsquant analyzer 10-Miltenyi).
For each peptide concentration, the geometric mean of the labelling associated with the peptide of interest is subtracted from background noise and reported as a percentage of the geometric mean of the […] labelling obtained for the reference peptide HIV pol 589-597 at a concentration of 100 μM. […] A2. Solubilisation of Peptides
T2 cells (5.104 cells per well) are incubated with decreasing concentrations of peptides from 100 μM to 0.1 μM (4 points: 100 μM, 10 μM, 1 μM, 0.1 μM) in serum-free medium (TexMacs) supplemented with 100 ng/μl of 32 Microglobulin at 37° C. for 16 hours. Cells are then washed two times and marked with the anti-HLA-A2 antibody coupled to PE (clone BB7.2, BD Pharmagen).
For each peptide concentration, the geometric mean of the labelling associated with the peptide of interest is subtracted from background noise and reported as a percentage of the geometric mean of the […] labelling obtained for the reference peptide HIV pol 589-597 at a concentration of 100 μM.

[2] = system: CD8 T cells from PBMCs of HLA-A*02 healthy donors; assay: Detection of antigenic peptide-specific CD8 T cells with pMHC multimers after in vitro amplification; type: cell-based, human; conditions: one HLA-A2 healthy donor, after cell amplification (FIG. 17)
Description: In vitro amplification method and specific pMHC multimers have been used for identification of CD22-B1, CD37-B1, TNFRSF13C-B1 and MS4A1-B4 specific T cells. pMHC multimers were generated for all the bacteria peptides and their respective human counterpart. PBMCs from several HLA-A*02 healthy donors (up to 19 donors) were collected, enriched after CD137 and CD8 selection and subjected to multiple rounds of in vitro amplification with EO2463 peptides loaded T2 cells to increase the number of specific T cell clones. Detection of OMP peptide specific CD8 T cells using cytometry analysis with the fluorescent multimer was performed on enriched CD8 T cell populations

YIFEHPELL (YIFEHPETA) [CD22-B1]
immunogenicity (T cell response in ELISPOT-IFNγ after vaccination) [1]: strongly immunogenic
Concentration of peptide that induces 20% of HLA-A2 expression (HLA-A*0201; T2 cells, peptide 100-0.1 μM, 16 h, 37° C., anti-HLA-A2 FACS): 0.16 µM
In vitro binding affinity* (relative affinity) (HLA-A*0201; normalized against HIV-pol concentration of peptide inducing 20% of HLA-A2 expression in the same experiment): 0.4
mean relative fluorescence intensity of T2 cells (HLA-A*0201; peptide 0.1 (μM)): 0
mean relative fluorescence intensity of T2 cells (HLA-A*0201; peptide 1 (μM)): 81
mean relative fluorescence intensity of T2 cells (HLA-A*0201; peptide 10 (μM)): 123
mean relative fluorescence intensity of T2 cells (HLA-A*0201; peptide 100 (μM)): 164
peptide-specific CD8 T cells detected with fluorescent multimer [2]: 4.6%
